In the nanobody polyreactivity screen of Harvey et al. (2022):

test: yeast display, Sf9 membrane polyspecificity reagent, FACS + sequencing; frameworks hold sequencing errors
Method in brief: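 In a synthetic yeast display library (Saccharomyces cerevisiae BJ5465), nanobody expression was induced with galactose for 36–48 hours. FACS gates were set low and high (top ~1%) using anti-HA fluorescence for expression and streptavidin fluorescence for binding of the Sf9 membrane reagent. Each polyreactivity label is drawn from the gate of origin.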

Sequence	polyreactivity (PSR sort gate)
QDQLVESGGGLVQAGGNLRLSCAASGRIYRYYAMGWYRQAPGKERELVATITLNTVSTYYADSVKGRFTISRDNAKNTVYVQKNSRTPEDTAVYYCAAGAVRFGAGYSRYWEDDYWGQGTQVTVSS	high polyreactivity
QDQLVESGGGLVQAGGRLRLSCAASGSTFLRYAMGWYRQAPGKERELVAAINLSGDRTYYADSVKGRFTISRDKAKNTFYLQMHSLKPEDTAVYYCAARWWGPSYDAYDYWGQGTQVTVSS	low polyreactivity
QDQLVESGGGLVQAGGRLRLSCAASGSTVGVYAMGWYRQAPGKERELVAAISYTGGSSYYADSVKGRFTISRDNAKNTVYLQMNSLKPEDTAVYYCAVEVGYTDSPYSYDYWGQGTQVTVSS	low polyreactivity
QDQLVESGGGLVQAGGRLRLTCAASGNTFSGNAMGWYRQAPGKERELVAAISGSGASTYYADSVKGRFTISRDNAKNTVYLQMNSLKPEDTAVYYCDADKPGIFSRFDYWGQGTQVTVSS	low polyreactivity
QDQLVESGGGLVQAGGRRRLSCAASGSIFGGYSMGWYRQAPGKERELVAAISRRGGNTYYADSVKGRFTISGDNAKNTVYLQMNSLKPDDTAVYYCAVRWPSARIPVKLDYWVQGTQVTVSS	high polyreactivity
QDQLVESGGGLVQAGGSLLLSCAASGLTVGRYAMGWYRQAPGKERELVAVINGSGGNTYYADSVKGRFTISRDHATNTVYLQMHSLKPEDTAVYYCNVDDWGQGTQVTVSS	low polyreactivity
QDQLVESGGGLVQAGGSLRISCAASGSTFFGYAMGWYRQAPGKERELVATISSGDSTNYADSVKGRFTFSRDNAKNTVYLQMNSLKPEDTAVFYCAAQGGDGVLALYYYWGQGTQVTVSS	low polyreactivity
QDQLVESGGGLVQAGGSLRLICAASGLTFKVYAMGWYRQAPGKERELVAAISWSGGSTYYADSVKGRFTISRDNAKNTVYLQMNSLKPEDTAVYYCAVEASYYVVFFPYEYWGQGTQVTVSS	low polyreactivity
QDQLVESGGGLVQAGGSLRLICAASGRIFNVYAMGWYRQAPGKERELVAAISWRGGNTYYADSVKGRFTISRDNAKNTVYLQMNSLKPEDTAVYYCAAVYRGYDYWGQGTQVTVSS	high polyreactivity
QDQLVESGGGLVQAGGSLRLICAASGSTFVQYVMGWYRPAPGKERELVAAITRSCGSTYYADSVKGRFTISRDNAKNTVYLQMNSMKPEDSAVYYCAAYALRIQYDYWGQGTQVTVSS	high polyreactivity
QDQLVESGGGLVQAGGSLRLRCAASGRTFYMYAMGWYRQAPGKERELDAVISPSGGPTYYADSVKGRFTISRDNAKNPGSLQMNSMKPEDTAVFYCATDYAYSPYRYWTRYDYWGLGTQVTVSS	high polyreactivity
QDQLVESGGGLVQAGGSLRLRCAASRFYTMGWYRQAPGKERELVAAISWSGGDTYYADSVKGRFTISRDNAKNTVYLQMNSLKPEDTAVYYCAKKTIGSYVHEPYYYWGQGTQVTVSS	low polyreactivity
QDQLVESGGGLVQAGGSLRLSCAASGFIFGLYAMGWYRQAPGKERELVAAISSGGSTYYADSVKGRFTISRDNAKNTVYLQMNSLKPEDTAVYYCAAYYVYSEYDYWGQGTQVTVSS	high polyreactivity
QDQLVESGGGLVQAGGSLRLSCAASGFIFKYYAMGWYRQAPGKVRELVAVISISGGSTYYADSVKGRLTISRDNAKNTVYLQMNSLKPEDTAVYYCNVYWRRTSTLAFDYCGQGTQVTVSS	high polyreactivity
QDQLVESGGGLVQAGGSLRLSCAASGFIFRWYAMGWYRQAPGKERELVAAISRSGDSTYYADSVKGRFTISRDNAKNTVYLQMNSLIPEDTAVYYCAADDRYYTYGYDYWGQGTQVTVSS	low polyreactivity
QDQLVESGGGLVQAGGSLRLSCAASGFIFYYNAMAWYRHAPGKERELVAAISYVGGSTYYADSVKGRFTISRDNAKNTVYLQLNSLKPEDTAFYYCAARVYWWIASLAGNYWGQGTQVSVSS	low polyreactivity
QDQLVESGGGLVQAGGSLRLSCAASGFIIIGNAMGWYRQAPGKERELVAAISRRGGSTYYADSVKGRFTISRDHAKNTVYLQMNSLKPEDTALYYCNALTRRQKGGEGGGYWGQGTQVTVSS	high polyreactivity
QDQLVESGGGLVQAGGSLRLSCAASGFIIQCNAMGWYRQAPGKERELVAAISSSVSTYYADSVKGRFTISRDNAKNTVYLQMNSLKPEDTAVYYCNAGFPLSLWLGDYWGQGTQVTVSS	low polyreactivity
QDQLVESGGGLVQAGGSLRLSCAASGFISRKNAMGWSRQAPGKERELVATITKSGDTTYYADSVKGRFTISRDNAKNTVYLQMNSLKPEDTAVYYCAAPLYYIGSWDYYVRYIYDYWGQGTQVTVSS	low polyreactivity
QDQLVESGGGLVQAGGSLRLSCAASGFNFDRYAMGWYRQAPGKERELVAAISRRGGSTYYADSVKGRFTISRDNAKNTVYLQMNSQKPEDTAVYYCAASRPSPRPRYGYWGQGTQVTVSS	high polyreactivity
QDQLVESGGGLVQAGGSLRLSCAASGFNFDSYAMRWYIQAPGKERELVAAMSWSGSSTYSADSVKGRFTISRDNAKNTGYLQMNSLKPEDTAVYYCAALVYPYWGGSMYYWGQGTQVTVSS	high polyreactivity
QDQLVESGGGLVQAGGSLRLSCAASGFNFSPNAMGWYRQAPGKERELVAAIDWSGDRTYYADSVKGRFTISRDNAKNTVYLEMNSLKPEDTSVYYCNVVRRSTGEYSFYYWGQGTQVTVSS	low polyreactivity
QDQLVESGGGLVQAGGSLRLSCAASGFTFAANAMGWSRQAPGKERELVAAISSDSTYADSVKGRFTISRDNAKNTVYLQLNSLKPEDTAVYYCAKDRYIVNSPGLDYWGQGTQVTVSS	low polyreactivity
QDQLVESGGGLVQAGGSLRLSCAASGFTFGRYAMGWYRQAPGKERELVATITRTGSTNYADSVKGRFTISRDNAKNTVDLQMHSLKPEDTAVYYCNAVYSGWRYVKYDYWGPGTQVTVSS	low polyreactivity
QDQLVESGGGLVQAGGSLRLSCAASGFTFGYYAMGWYRQAPGKERELVAAISTRGTSTYYADSVKGRFTISRDNAKNTVYLQMNSLKPEDTAVYYCARDKATDHGYNEFDYWGQGTQVTVSS	low polyreactivity
QDQLVESGGGLVQAGGSLRLSCAASGFTFGYYPMGWSRQAPGKERELVAAITSSGGRTYYADSVKGRFTISRDYGKNTVYLQMNSLKPEDTAVYYCATAYRPDYGYWGQGTQVTRSS	high polyreactivity
QDQLVESGGGLVQAGGSLRLSCAASGFTFNTYAMGWNRQAPGKERELVDAISKSGTRTYYADSVKGRFTISRDNAKNTVYLQMKSLKPEVTAVYYCAAEALYYYRLGWVYLRYDYWGQGTQVTVSS	high polyreactivity
QDQLVESGGGLVQAGGSLRLSCAASGFTFTIYAMGGYRQAPGKEREFVAAISYTDGSTFYVDSVKGRFTISRDYAKNTVYLQMTSLKPEDTAVYYCAKDRPGWVHRRPTGGFDYWGQGTQVTVSS	low polyreactivity
QDQLVESGGGLVQAGGSLRLSCAASGFTFYPYAMGWYRQAPGKERELVAAITYIGSTYYADSVKGRFTISRDNAKNTVYLQMNSLKPEDTAVYYCAAVKVFLGLGYDYWGQGTQVTVSS	low polyreactivity
QDQLVESGGGLVQAGGSLRLSCAASGFTYEKYAMGSYRTAPGKERELVASISWSGGRTRYADSVMGRFTISRDNAKNTVYLQMNSLKPEDTAVYYCAARGAYKSAYNRNEYWGQGTQVTVSS	high polyreactivity
